Measurements reported in article PMC5912162 (Bioconjugate chemistry, 2010).

Columns and labels:
KRAS2 G12D 20-mer RNA = settings: cited from earlier work
[1] = test system: human CAPAN2 (G12 V) pancreatic cancer xenografts; settings: mouse, in vivo
in vivo [2] = settings: mouse, iv, 2 nmol, total radioactivity, Tissue distribution
in vivo [3] = settings: mouse, iv, total radioactivity
[4] = mouse, in vivo

For “(Gd-DOTA-AEEA)2-PDAP^1-AEEA2-GCCAaCAGCTCC-AEEA-D(Cys-Ser-Lys-Cys) (disulfide) [WT5512]”, the Tm (KRAS2 G12D 20-mer RNA) is listed as 68.0 ± 1.0 °C.

For “(Gd-DOTA-AEEA)8-PDAP^3-AEEA2-GCCAaCAGCTCC-AEEA-D(Cys-Ser-Lys-Cys) (disulfide) [WT10144]”, the Tm (KRAS2 G12D 20-mer RNA) is given as 66.8 ± 0.9 °C.

In the case of `Cc1cn(CC(=O)N(CCNC(=O)CN(CCNC(=O)CN(CCNC(=O)CN(CCNC(=O)CN(CCNC(=O)CN(CCNC(=O)CN(CCNC(=O)CN(CCNC(=O)CN(CCNC(=O)CN(CCNC(=O)COCCOCCNC(=O)COCCOCCNC(=O)[C@H](CNC(=O)[C@H](CNC(=O)[C@H](CNC(=O)COCCOCCNC(=O)CN2CCN(CC(=O)O)CCN(CC(=O)O)CCN(CC(=O)O)CC2)NC(=O)COCCOCCNC(=O)CN2CCN(CC(=O)O)CCN(CC(=O)O)CCN(CC(=O)O)CC2)NC(=O)[C@H](CNC(=O)COCCOCCNC(=O)CN2CCN(CC(=O)O)CCN(CC(=O)O)CCN(CC(=O)O)CC2)NC(=O)COCCOCCNC(=O)CN2CCN(CC(=O)O)CCN(CC(=O)O)CCN(CC(=O)O)CC2)NC(=O)[C@H](CNC(=O)[C@H](CNC(=O)COCCOCCNC(=O)CN2CCN(CC(=O)O)CCN(CC(=O)O)CCN(CC(=O)O)CC2)NC(=O)COCCOCCNC(=O)CN2CCN(CC(=O)O)CCN(CC(=O)O)CCN(CC(=O)O)CC2)NC(=O)[C@H](CNC(=O)COCCOCCNC(=O)CN2CCN(CC(=O)O)CCN(CC(=O)O)CCN(CC(=O)O)CC2)NC(=O)COCCOCCNC(=O)CN2CCN(CC(=O)O)CCN(CC(=O)O)CCN(CC(=O)O)CC2)C(=O)Cn2cnc3c(=O)[nH]c(N)nc32)C(=O)Cn2ccc(N)nc2=O)C(=O)Cn2ccc(N)nc2=O)C(=O)Cn2cnc3c(N)ncnc32)C(=O)Cn2cnc3c(N)ncnc32)C(=O)Cn2ccc(N)nc2=O)C(=O)Cn2cnc3c(N)ncnc32)C(=O)Cn2cnc3c(=O)[nH]c(N)nc32)C(=O)Cn2ccc(N)nc2=O)CC(=O)NCCN(CC(=O)NCCN(CC(=O)NCCOCCOCC(=O)N[C@@H]2CSSC[C@H](C(N)=O)NC(=O)[C@@H](CCCCN)NC(=O)[C@@H](CO)NC2=O)C(=O)Cn2ccc(N)nc2=O)C(=O)Cn2ccc(N)nc2=O)c(=O)[nH]c1=O` [WT8910, (DOTA-AEEA)8-PDAP^3-AEEA2-GCCAaCAGCTCC-AEEA-D(Cys-Ser-Lys-Cys)], the “Decrease of K/T ratio by added Gdn probes” value [1] is reported as “more than 5 fold”, the “Decrease of kidney accumulation by added Gdn probes” value [1] is reported as 2 fold and the tissue uptake at 24 h (in vivo [2]; blood) is reported as 0.012 ± 0.002 %ID/g. It also gave a tissue uptake at 24 h (in vivo [2]; heart) of 0.037 ± 0.006 %ID/g, a tissue uptake at 24 h (in vivo [2]; intestine) of 0.043 ± 0.006 %ID/g and a tissue uptake at 24 h (in vivo [2]; kidneys) of 13.9 ± 2.11 %ID/g. It also gave a tissue uptake at 24 h (in vivo [2]; liver) of 0.104 ± 0.015 %ID/g, a tissue uptake at 24 h (in vivo [2]; lungs) of 0.207 ± 0.031 %ID/g and a tissue uptake at 24 h (in vivo [2]; muscle) of 0.03 ± 0.004 %ID/g. The tissue uptake at 24 h (in vivo [2]; spleen) was 0.056 ± 0.009 %ID/g, the tissue uptake at 24 h (in vivo [2]; tumor) was 0.113 ± 0.014 %ID/g and the tissue to tissue ratio at 24 h (in vivo [3]) was 6.5 ± 1. For the same molecule, the Tm (KRAS2 G12D 20-mer RNA) was 66.9 ± 0.5 °C.

`Cc1cn(CC(=O)N(CCNC(=O)CN(CCNC(=O)CN(CCNC(=O)CN(CCNC(=O)CN(CCNC(=O)CN(CCNC(=O)CN(CCNC(=O)CN(CCNC(=O)CN(CCNC(=O)CN(CCNC(=O)COCCOCCNC(=O)COCCOCCNC(=O)[C@H](CNC(=O)COCCOCCNC(=O)CN2CCN(CC(=O)O)CCN(CC(=O)O)CCN(CC(=O)O)CC2)NC(=O)COCCOCCNC(=O)CN2CCN(CC(=O)O)CCN(CC(=O)O)CCN(CC(=O)O)CC2)C(=O)Cn2cnc3c(=O)[nH]c(N)nc32)C(=O)Cn2ccc(N)nc2=O)C(=O)Cn2ccc(N)nc2=O)C(=O)Cn2cnc3c(N)ncnc32)C(=O)Cn2cnc3c(N)ncnc32)C(=O)Cn2ccc(N)nc2=O)C(=O)Cn2cnc3c(N)ncnc32)C(=O)Cn2cnc3c(=O)[nH]c(N)nc32)C(=O)Cn2ccc(N)nc2=O)CC(=O)NCCN(CC(=O)NCCN(CC(=O)NCCOCCOCC(=O)N[C@@H]2CSSC[C@H](C(N)=O)NC(=O)[C@@H](CCCCN)NC(=O)[C@@H](CO)NC2=O)C(=O)Cn2ccc(N)nc2=O)C(=O)Cn2ccc(N)nc2=O)c(=O)[nH]c1=O` [WT5204, (DOTA-AEEA)2-PDAP^1-AEEA2-GCCAaCAGCTCC-AEEA-D(Cys-Ser-Lys-Cys)] gave a tissue uptake at 24 h (in vivo [2]; blood) of 0.049 ± 0.005 %ID/g, a tissue uptake at 24 h (in vivo [2]; heart) of 0.042 ± 0.004 %ID/g and a tissue uptake at 24 h (in vivo [2]; intestine) of 0.079 ± 0.008 %ID/g. It also gave a tissue uptake at 24 h (in vivo [2]; kidneys) of 19 ± 2.34 %ID/g, a tissue uptake at 24 h (in vivo [2]; liver) of 0.248 ± 0.033 %ID/g and a tissue uptake at 24 h (in vivo [2]; lungs) of 0.093 ± 0.009 %ID/g. For the same molecule, the tissue uptake at 24 h (in vivo [2]; muscle) was 0.046 ± 0.006 %ID/g, the tissue uptake at 24 h (in vivo [2]; spleen) was 0.105 ± 0.012 %ID/g and the tissue uptake at 24 h (in vivo [2]; tumor) was 0.144 ± 0.014 %ID/g. For the same molecule, the Tm (KRAS2 G12D 20-mer RNA) was 68.0 ± 1.2 °C.

`Cc1cn(CC(=O)N(CCNC(=O)CN(CCNC(=O)CN(CCNC(=O)CN(CCNC(=O)CN(CCNC(=O)CN(CCNC(=O)CN(CCNC(=O)CN(CCNC(=O)CN(CCNC(=O)CN(CCNC(=O)COCCOCCNC(=O)COCCOCCNC(=O)[C@H](CNC(=O)[C@H](CNC(=O)[C@H](CNC(=O)COCCOCCNC(=O)CN2CCN(CC(=O)O)CCN(CC(=O)O)CCN(CC(=O)O)CC2)NC(=O)COCCOCCNC(=O)CN2CCN(CC(=O)O)CCN(CC(=O)O)CCN(CC(=O)O)CC2)NC(=O)[C@H](CNC(=O)COCCOCCNC(=O)CN2CCN(CC(=O)O)CCN(CC(=O)O)CCN(CC(=O)O)CC2)NC(=O)COCCOCCNC(=O)CN2CCN(CC(=O)O)CCN(CC(=O)O)CCN(CC(=O)O)CC2)NC(=O)[C@H](CNC(=O)[C@H](CNC(=O)COCCOCCNC(=O)CN2CCN(CC(=O)O)CCN(CC(=O)O)CCN(CC(=O)O)CC2)NC(=O)COCCOCCNC(=O)CN2CCN(CC(=O)O)CCN(CC(=O)O)CCN(CC(=O)O)CC2)NC(=O)[C@H](CNC(=O)COCCOCCNC(=O)CN2CCN(CC(=O)O)CCN(CC(=O)O)CCN(CC(=O)O)CC2)NC(=O)COCCOCCNC(=O)CN2CCN(CC(=O)O)CCN(CC(=O)O)CCN(CC(=O)O)CC2)C(=O)Cn2cnc3c(=O)[nH]c(N)nc32)C(=O)Cn2ccc(N)nc2=O)C(=O)Cn2ccc(N)nc2=O)C(=O)Cn2cnc3c(N)ncnc32)C(=O)Cn2cc(C)c(=O)[nH]c2=O)C(=O)Cn2ccc(N)nc2=O)C(=O)Cn2cnc3c(N)ncnc32)C(=O)Cn2cnc3c(=O)[nH]c(N)nc32)C(=O)Cn2ccc(N)nc2=O)CC(=O)NCCN(CC(=O)NCCN(CC(=O)NCCOCCOCC(=O)N[C@@H]2CSSC[C@H](C(N)=O)NC(=O)[C@@H](CCCCN)NC(=O)[C@@H](CO)NC2=O)C(=O)Cn2ccc(N)nc2=O)C(=O)Cn2ccc(N)nc2=O)c(=O)[nH]c1=O` [WT8900, (DOTA-AEEA)8-PDAP^3-AEEA2-GCCAtCAGCTCC-AEEA-D(Cys-Ser-Lys-Cys)] showed a tissue uptake at 24 h (in vivo [2]; blood) of 0.018 ± 0.001 %ID/g, a tissue uptake at 24 h (in vivo [2]; heart) of 0.035 ± 0.005 %ID/g and a tissue uptake at 24 h (in vivo [2]; intestine) of 0.048 ± 0.004 %ID/g. For the same molecule, the tissue uptake at 24 h (in vivo [2]; kidneys) was 29.6 ± 9.21 %ID/g, the tissue uptake at 24 h (in vivo [2]; liver) was 0.152 ± 0.012 %ID/g and the tissue uptake at 24 h (in vivo [2]; lungs) was 0.096 ± 0.021 %ID/g. For the same molecule, the tissue uptake at 24 h (in vivo [2]; muscle) was 0.04 ± 0.01 %ID/g, the tissue uptake at 24 h (in vivo [2]; spleen) was 0.075 ± 0.005 %ID/g and the tissue uptake at 24 h (in vivo [2]; tumor) was 0.143 ± 0.011 %ID/g. The Tm (KRAS2 G12D 20-mer RNA) was 75.9 ± 0.5 °C.

For `Cc1cn(CC(=O)N(CCNC(=O)CN(CCNC(=O)CN(CCNC(=O)CN(CCNC(=O)CN(CCNC(=O)CN(CCNC(=O)CN(CCNC(=O)CN(CCNC(=O)CN(CCNC(=O)CN(CCNC(=O)COCCOCCNC(=O)COCCOCCNC(=O)[C@H](CNC(=O)COCCOCCNC(=O)CN2CCN(CC(=O)O)CCN(CC(=O)O)CCN(CC(=O)O)CC2)NC(=O)COCCOCCNC(=O)CN2CCN(CC(=O)O)CCN(CC(=O)O)CCN(CC(=O)O)CC2)C(=O)Cn2cnc3c(=O)[nH]c(N)nc32)C(=O)Cn2ccc(N)nc2=O)C(=O)Cn2ccc(N)nc2=O)C(=O)Cn2cnc3c(N)ncnc32)C(=O)Cn2cc(C)c(=O)[nH]c2=O)C(=O)Cn2ccc(N)nc2=O)C(=O)Cn2cnc3c(N)ncnc32)C(=O)Cn2cnc3c(=O)[nH]c(N)nc32)C(=O)Cn2ccc(N)nc2=O)CC(=O)NCCN(CC(=O)NCCN(CC(=O)NCCOCCOCC(=O)N[C@@H]2CSSC[C@H](C(N)=O)NC(=O)[C@@H](CCCCN)NC(=O)[C@@H](CO)NC2=O)C(=O)Cn2ccc(N)nc2=O)C(=O)Cn2ccc(N)nc2=O)c(=O)[nH]c1=O` [WT5195, (DOTA-AEEA)2-PDAP^1-AEEA2-GCCAtCAGCTCC-AEEA-D(Cys-Ser-Lys-Cys)], the “Breakdown fragments in urine” value [4] was “not detected”, the “Free 111In (void volume peak) in urine, share of radioactivity” value [4] was “less than 1%” and the “Intact probe peak (eluting at 9 min) in urine, share of radioactivity” value [4] was “more than 99%”. The tissue uptake at 24 h (in vivo [2]; blood) was 0.02 ± 0.01 %ID/g, the tissue uptake at 24 h (in vivo [2]; heart) was 0.028 ± 0.008 %ID/g and the tissue uptake at 24 h (in vivo [2]; intestine) was 0.048 ± 0.007 %ID/g. It also gave a tissue uptake at 24 h (in vivo [2]; kidneys) of 18.4 ± 1.89 %ID/g, a tissue uptake at 24 h (in vivo [2]; liver) of 0.147 ± 0.015 %ID/g and a tissue uptake at 24 h (in vivo [2]; lungs) of 0.217 ± 0.257 %ID/g. It also gave a tissue uptake at 24 h (in vivo [2]; muscle) of 0.038 ± 0.007 %ID/g, a tissue uptake at 24 h (in vivo [2]; spleen) of 0.079 ± 0.006 %ID/g and a tissue uptake at 24 h (in vivo [2]; tumor) of 0.135 ± 0.034 %ID/g. For the same molecule, the Tm (KRAS2 G12D 20-mer RNA) was 78.7 ± 0.6 °C.
